Source: PMC6994259 (Nature, 2020)

T1: Sgf73 (S. cerevisiae, UniProt P53165 1-657)
T1 sequence: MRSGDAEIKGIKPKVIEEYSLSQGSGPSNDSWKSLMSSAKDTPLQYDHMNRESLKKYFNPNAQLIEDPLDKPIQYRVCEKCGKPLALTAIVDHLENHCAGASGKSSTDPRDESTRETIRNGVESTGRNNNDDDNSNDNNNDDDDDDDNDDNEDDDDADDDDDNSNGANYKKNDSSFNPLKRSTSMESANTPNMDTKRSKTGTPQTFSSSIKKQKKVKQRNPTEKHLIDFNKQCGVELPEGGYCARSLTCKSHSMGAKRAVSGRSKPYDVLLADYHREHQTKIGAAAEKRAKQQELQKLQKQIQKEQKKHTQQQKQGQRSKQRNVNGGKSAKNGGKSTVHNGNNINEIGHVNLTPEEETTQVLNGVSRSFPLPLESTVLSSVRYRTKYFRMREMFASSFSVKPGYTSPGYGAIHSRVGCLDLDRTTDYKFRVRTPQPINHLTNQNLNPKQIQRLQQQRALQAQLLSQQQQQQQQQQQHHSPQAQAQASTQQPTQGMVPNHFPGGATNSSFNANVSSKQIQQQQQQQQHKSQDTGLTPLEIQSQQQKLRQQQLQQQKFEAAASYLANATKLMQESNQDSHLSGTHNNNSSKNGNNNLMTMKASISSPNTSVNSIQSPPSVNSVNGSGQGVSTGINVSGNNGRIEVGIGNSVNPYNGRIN

T2: Spt7 (S. cerevisiae, UniProt P35177 1-1332)
T2 sequence: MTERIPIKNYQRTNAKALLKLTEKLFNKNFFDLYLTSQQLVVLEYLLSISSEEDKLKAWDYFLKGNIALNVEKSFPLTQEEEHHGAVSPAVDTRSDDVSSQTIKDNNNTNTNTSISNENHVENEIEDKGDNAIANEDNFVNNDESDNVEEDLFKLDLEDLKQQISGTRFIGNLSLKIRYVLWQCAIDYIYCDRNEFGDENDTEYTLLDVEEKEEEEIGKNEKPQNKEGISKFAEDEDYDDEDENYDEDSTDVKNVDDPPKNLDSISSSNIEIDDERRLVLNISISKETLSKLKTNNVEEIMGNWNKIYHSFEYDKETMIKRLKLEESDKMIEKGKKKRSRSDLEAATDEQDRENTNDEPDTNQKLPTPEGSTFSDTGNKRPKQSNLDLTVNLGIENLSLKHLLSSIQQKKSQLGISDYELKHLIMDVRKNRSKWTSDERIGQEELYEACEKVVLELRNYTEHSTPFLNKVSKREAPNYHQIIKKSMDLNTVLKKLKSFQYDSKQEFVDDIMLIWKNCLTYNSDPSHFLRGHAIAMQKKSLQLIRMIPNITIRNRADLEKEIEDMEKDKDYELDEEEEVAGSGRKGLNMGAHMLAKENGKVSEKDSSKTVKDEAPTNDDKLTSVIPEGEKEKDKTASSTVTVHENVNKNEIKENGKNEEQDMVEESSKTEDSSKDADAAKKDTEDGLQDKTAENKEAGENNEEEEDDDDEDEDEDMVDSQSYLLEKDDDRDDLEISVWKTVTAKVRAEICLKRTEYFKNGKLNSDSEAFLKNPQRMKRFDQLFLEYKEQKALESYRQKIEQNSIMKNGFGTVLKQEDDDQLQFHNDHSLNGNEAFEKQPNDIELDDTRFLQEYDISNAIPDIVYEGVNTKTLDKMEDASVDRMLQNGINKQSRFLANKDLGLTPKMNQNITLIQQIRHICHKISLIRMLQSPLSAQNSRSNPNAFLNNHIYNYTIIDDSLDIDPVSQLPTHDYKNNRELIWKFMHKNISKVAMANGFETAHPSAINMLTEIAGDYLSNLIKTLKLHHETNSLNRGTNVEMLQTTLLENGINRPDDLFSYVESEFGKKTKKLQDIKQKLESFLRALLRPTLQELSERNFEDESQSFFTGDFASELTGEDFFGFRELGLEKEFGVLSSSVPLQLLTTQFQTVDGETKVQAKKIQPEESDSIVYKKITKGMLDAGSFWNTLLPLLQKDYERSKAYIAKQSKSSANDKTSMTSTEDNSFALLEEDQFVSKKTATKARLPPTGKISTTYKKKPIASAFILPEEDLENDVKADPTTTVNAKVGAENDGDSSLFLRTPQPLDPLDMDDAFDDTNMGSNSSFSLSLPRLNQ

B1: Taf6 (natural protein)
chain: MSTQQQSYTIWSPQDTVKDVAESLGLENINDDVLKALAMDVEYRILEIIEQAVKFKRHSKRDVLTTDDVSKALRVLNVEPLYGYYDGSEVNKAVSFSKVNTSGGQSVYYLDEEEVDFDRLINEPLPQVPRLPTFTTHWLAVEGVQPAIIQNPNLNDIRVSQPPFIRGAIVTALNDNSLQTPVTSTTASASVTDTGASQHLSNVKPGQNTEVKPLVKHVLSKELQIYFNKVISTLTAKSQADEAAQHMKQAALTSLRTDSGLHQLVPYFIQFIAEQITQNLSDLQLLTTILEMIYSLLSNTSIFLDPYIHSLMPSILTLLLAKKLGGSPKDDSPQEIHEFLERTNALRDFAASLLDYVLKKFPQAYKSLKPRVTRTLLKTFLDINRVFGTYYGCLKGVSVLEGESIRFFLGNLNNWARLVFNESGITLDNIEEHLNDDSNPTRTKFTKEETQILVDTVISALLVLKKDLPDLYEGKGEKVTDEDKEKLLERCGVTIGFHILKRDDAKELISAIFFGE
B2: Taf5 (natural protein)
chain: MSQKQSTNQNQNGTHQPQPVKNQRTNNAAGANSGQQPQQQSQGQSQQQGRSNGPFSASDLNRIVLEYLNKKGYHRTEAMLRAESGRTLTPQNKQSPANTKTGKFPEQSSIPPNPGKTAKPISNPTNLSSKRDAEGGIVSSGRLEGLNAPENYIRAYSMLKNWVDSSLEIYKPELSYIMYPIFIYLFLNLVAKNPVYARRFFDRFSPDFKDFHGSEINRLFSVNSIDHIKENEVASAFQSHKYRITMSKTTLNLLLYFLNENESIGGSLIISVINQHLDPNIVESVTAREKLADGIKVLSDSENGNGKQNLEMNSVPVKLGPFPKDEEFVKEIETELKIKDDQEKQLNQQTAGDNYSGANNRTLLQEYKAMNNEKFKDNTGDDDKDKIKDKIAKDEEKKESELKVDGEKKDSNLSSPARDILPLPPKTALDLKLEIQKVKESRDAIKLDNLQLALPSVCMYTFQNTNKDMSCLDFSDDCRIAAAGFQDSYIKIWSLDGSSLNNPNIALNNNDKDEDPTCKTLVGHSGTVYSTSFSPDNKYLLSGSEDKTVRLWSMDTHTALVSYKGHNHPVWDVSFSPLGHYFATASHDQTARLWSCDHIYPLRIFAGHLNDVDCVSFHPNGCYVFTGSSDKTCRMWDVSTGDSVRLFLGHTAPVISIAVCPDGRWLSTGSEDGIINVWDIGTGKRLKQMRGHGKNAIYSLSYSKEGNVLISGGADHTVRVWDLKKATTEPSAEPDEPFIGYLGDVTASINQDIKEYGRRRTVIPTSDLVASFYTKKTPVFKVKFSRSNLALAGGAFRP

Legend:
Taf5 [1] = target: B2; assay: affinity purification with mass spectrometry
Tra1 = Tra1 (S. cerevisiae, UniProt P38811 1-3744); assay: affinity purification with mass spectrometry
Chain of Tra1 (P38811 whole entry): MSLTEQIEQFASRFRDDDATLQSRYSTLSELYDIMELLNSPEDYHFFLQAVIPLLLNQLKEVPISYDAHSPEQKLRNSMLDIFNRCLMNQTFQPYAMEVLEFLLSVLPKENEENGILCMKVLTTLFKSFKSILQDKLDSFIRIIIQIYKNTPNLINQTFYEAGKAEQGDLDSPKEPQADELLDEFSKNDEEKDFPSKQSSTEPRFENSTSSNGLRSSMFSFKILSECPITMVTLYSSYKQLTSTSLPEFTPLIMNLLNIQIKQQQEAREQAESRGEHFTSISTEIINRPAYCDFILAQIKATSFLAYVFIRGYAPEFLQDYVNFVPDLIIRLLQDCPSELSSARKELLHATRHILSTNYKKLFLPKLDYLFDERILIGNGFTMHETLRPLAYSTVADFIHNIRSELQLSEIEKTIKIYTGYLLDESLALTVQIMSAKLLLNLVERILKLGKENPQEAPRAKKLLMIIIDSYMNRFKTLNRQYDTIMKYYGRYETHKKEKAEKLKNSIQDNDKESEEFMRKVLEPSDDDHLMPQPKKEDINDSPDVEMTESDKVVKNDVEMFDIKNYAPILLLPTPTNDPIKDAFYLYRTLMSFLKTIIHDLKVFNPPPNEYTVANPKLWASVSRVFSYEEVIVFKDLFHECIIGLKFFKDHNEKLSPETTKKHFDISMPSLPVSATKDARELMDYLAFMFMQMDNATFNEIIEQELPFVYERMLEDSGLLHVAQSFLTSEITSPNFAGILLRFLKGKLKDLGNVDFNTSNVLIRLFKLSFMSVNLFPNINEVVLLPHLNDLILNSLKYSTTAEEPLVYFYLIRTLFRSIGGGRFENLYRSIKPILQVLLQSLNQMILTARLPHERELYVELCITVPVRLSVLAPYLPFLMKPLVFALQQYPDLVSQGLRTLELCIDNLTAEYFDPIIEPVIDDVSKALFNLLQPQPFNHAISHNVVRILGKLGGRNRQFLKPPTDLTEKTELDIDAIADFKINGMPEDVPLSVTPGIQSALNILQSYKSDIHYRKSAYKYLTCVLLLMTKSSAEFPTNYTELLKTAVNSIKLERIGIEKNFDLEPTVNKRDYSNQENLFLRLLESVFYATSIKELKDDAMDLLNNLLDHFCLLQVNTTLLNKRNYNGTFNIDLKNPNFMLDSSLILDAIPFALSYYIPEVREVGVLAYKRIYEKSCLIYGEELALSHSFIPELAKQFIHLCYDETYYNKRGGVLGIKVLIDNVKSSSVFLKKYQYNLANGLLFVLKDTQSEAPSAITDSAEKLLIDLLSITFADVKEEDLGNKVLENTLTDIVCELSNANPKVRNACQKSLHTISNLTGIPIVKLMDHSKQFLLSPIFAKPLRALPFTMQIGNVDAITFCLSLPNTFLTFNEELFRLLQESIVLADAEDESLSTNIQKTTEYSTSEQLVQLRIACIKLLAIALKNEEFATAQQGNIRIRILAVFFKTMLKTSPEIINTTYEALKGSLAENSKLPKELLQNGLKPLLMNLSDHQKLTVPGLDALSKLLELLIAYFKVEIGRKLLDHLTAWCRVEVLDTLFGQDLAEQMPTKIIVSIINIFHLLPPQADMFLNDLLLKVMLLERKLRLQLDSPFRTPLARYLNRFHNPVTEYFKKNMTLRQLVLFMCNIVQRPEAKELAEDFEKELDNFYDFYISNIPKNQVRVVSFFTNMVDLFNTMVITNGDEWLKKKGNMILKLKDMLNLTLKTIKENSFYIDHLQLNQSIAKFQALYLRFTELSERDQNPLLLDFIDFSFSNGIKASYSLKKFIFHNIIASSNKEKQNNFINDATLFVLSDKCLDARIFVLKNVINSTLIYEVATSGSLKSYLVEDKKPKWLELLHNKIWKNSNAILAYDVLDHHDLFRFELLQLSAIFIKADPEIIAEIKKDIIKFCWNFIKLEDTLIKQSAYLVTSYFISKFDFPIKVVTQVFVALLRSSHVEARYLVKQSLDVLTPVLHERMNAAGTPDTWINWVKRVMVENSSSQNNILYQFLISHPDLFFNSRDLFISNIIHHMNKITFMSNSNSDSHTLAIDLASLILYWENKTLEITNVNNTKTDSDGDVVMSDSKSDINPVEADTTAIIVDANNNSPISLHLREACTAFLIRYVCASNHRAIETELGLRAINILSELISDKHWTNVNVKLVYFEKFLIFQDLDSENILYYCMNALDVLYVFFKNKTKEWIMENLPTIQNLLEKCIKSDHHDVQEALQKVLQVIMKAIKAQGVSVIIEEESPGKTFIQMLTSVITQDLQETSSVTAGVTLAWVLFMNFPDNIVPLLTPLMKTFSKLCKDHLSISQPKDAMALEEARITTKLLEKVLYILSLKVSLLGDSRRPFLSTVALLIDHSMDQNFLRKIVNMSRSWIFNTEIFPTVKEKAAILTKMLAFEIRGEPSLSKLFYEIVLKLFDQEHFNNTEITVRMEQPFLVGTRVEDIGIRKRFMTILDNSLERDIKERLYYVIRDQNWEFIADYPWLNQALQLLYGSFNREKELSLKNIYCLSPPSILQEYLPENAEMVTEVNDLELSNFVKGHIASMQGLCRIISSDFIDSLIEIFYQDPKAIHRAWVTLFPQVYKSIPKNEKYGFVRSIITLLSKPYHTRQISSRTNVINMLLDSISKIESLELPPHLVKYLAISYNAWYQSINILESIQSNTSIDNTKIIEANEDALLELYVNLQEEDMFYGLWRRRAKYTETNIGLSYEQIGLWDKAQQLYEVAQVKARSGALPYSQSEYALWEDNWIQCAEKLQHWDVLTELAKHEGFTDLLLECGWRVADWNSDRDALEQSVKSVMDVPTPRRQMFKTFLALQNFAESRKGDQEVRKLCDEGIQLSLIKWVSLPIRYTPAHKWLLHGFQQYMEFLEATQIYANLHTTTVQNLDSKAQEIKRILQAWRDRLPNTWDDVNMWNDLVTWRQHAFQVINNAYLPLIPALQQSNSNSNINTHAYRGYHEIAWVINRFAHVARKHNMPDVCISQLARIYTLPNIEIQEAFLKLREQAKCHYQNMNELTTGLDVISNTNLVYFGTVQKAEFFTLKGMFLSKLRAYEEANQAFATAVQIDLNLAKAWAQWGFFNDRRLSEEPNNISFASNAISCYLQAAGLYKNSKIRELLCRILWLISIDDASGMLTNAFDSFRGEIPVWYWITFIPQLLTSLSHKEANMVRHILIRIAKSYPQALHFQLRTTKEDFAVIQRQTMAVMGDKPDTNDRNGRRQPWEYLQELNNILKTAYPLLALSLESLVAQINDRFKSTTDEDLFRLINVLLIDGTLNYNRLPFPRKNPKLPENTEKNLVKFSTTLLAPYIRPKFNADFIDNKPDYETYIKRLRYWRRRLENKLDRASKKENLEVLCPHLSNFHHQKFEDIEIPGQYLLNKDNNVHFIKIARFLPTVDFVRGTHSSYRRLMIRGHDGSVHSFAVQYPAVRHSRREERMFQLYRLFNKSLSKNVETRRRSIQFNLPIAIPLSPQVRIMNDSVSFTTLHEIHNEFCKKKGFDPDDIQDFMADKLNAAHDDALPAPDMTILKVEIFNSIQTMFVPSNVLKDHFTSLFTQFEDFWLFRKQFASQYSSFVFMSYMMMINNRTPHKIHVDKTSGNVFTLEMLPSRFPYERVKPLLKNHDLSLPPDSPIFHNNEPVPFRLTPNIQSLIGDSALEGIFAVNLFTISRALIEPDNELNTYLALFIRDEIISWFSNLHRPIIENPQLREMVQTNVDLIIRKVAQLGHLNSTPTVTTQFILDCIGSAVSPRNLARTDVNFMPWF

Sgf73 [2] = target: T1, Sgf73; assay: affinity purification with mass spectrometry
Taf5 [3] = target: B2; assay: cryo-EM structure
Taf6 = target: B1; assay: cryo-EM structure
Sgf73 [4] = target: T1, Sgf73; assay: cryo-EM structure
Spt7 = target: T2, Spt7; assay: cryo-EM structure

Binder	binding result (Taf5 [3])	binding result (Sgf73 [4])	binding result (Spt7)	other results
Spt20 (natural protein) MSANSPTGNDPHVFGIPVNATPSNMGSPGSPVNVPPPMNPAVANVNHPVMRTNSNSNANEGTRTLTREQIQQLQQRQRLLLQQRLLEQQRKQQALQNYEAQFYQMLMTLNKRPKRLYNFVEDADSILKKYEQYLHSFEFHIYENNYKICAPANSRLQQQQKQPELTSDGLILTKNNETLKEFLEYVARGRIPDAIMEVLRDCNIQFYEGNLILQVYDHTNTVDVTPKENKPNLNSSSSPSNNNSTQDNSKIQQPSEPNSGVANTGANTANKKASFKRPRVYRTLLKPNDLTTYYDMMSYADNARFSDSIYQQFESEILTLTKRNLSLSVPLNPYEHRDMLEETAFSEPHWDSEKKSFIHEHRAESTREGTKGVVGHIEERDEFPQHSSNYEQLMLIMNERTTTITNSTFAVSLTKNAMEIASSSSNGVRGASSSTSNSASNTRNNSLANGNQVALAAAAAAAAVGSTMGNDNNQFSRLKFIEQWRINKEKRKQQALSANINPTPFNARISMTAPLTPQQQLLQRQQQALEQQQNGGAMKNANKRSGNNATSNNNNNNNNLDKPKVKRPRKNAKKSESGTPAPKKKRMTKKKQSASSTPSSTTMS				binding result (Taf5 [1]): binds; binding result (Tra1): binds; binding result (Sgf73 [2]): binds
Taf9 (natural protein) MNGGGKNVLNKNSVGSVSEVGPDSTQEETPRDVRLLHLLLASQSIHQYEDQVPLQLMDFAHRYTQGVLKDALVYNDYAGSGNSAGSGLGVEDIRLAIAARTQYQFKPTAPKELMLQLAAERNKKALPQVMGTWGVRLPPEKYCLTAKEWDLEDPKSM	binds	binds		binding result (Taf6): binds
Taf10 (natural protein) MDFEEDYDAEFDDNQEGQLETPFPSVAGADDGDNDNDDSVAENMKKKQKREAVVDDGSENAFGIPEFTRKDKTLEEILEMMDSTPPIIPDAVIDYYLTKNGFNVADVRVKRLLALATQKFVSDIAKDAYEYSRIRSSVAVSNANNSQARARQLLQGQQQPGVQQISQQQHQQNEKTTASKVVLTVNDLSSAVAEYGLNIGRPDFYR	binds		binds	
B1	binds	binds	binds	
B2			binds	
